Data reported in article PMC12667445, “Targeting RBM10‐Repressed RORB Activity in Liquid Condensates Inhibits Lysosomal Biogenesis and Neuroblastoma Progression via Affecting NF‐κB Signaling” (Advanced Science, 2025).

Target: T1, recombinant full‐length MBP‐tagged RBM10 (human, UniProt P98175 1-930)
T1 construct: RBM10 (variant 1 is the form found in NB cells), full length; Printed domain limits: RRM1 129-209, ZF1 212-242, RRM2 300-384, ZF2 759-784, G patch 858-904; The construct and its expression host are not described in the main text; They may be in the Supporting Information; source: recombinant, purified
T1 sequence (P98175 whole entry, the tested form may be a part): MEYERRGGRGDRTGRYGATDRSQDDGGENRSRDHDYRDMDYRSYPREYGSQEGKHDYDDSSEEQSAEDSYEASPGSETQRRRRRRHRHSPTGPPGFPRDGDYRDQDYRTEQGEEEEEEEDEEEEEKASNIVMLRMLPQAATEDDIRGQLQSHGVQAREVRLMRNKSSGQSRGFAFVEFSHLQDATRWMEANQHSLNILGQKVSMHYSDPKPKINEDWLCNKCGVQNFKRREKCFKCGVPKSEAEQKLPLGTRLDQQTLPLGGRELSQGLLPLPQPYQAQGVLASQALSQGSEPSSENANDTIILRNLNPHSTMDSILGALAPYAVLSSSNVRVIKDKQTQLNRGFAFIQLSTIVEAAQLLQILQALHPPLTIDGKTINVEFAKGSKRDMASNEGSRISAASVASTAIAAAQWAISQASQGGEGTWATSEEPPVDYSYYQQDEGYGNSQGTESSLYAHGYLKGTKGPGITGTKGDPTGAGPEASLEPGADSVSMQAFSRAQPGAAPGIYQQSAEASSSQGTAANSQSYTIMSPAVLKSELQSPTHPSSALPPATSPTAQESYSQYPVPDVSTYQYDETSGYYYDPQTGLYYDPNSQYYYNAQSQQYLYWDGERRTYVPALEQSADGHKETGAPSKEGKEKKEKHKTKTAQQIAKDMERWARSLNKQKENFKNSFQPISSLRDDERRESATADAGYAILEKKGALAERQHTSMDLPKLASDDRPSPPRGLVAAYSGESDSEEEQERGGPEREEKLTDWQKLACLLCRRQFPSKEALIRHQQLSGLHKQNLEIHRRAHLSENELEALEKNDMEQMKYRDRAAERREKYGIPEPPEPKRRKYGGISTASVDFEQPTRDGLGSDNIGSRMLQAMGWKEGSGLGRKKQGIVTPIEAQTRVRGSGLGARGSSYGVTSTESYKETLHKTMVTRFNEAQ
Experiment: co-IP; purified recombinant GST-tagged RORB and MBP-tagged RBM10, full-length or truncated; western blot
Conditions: both partners purified

binding result: binds
B1: recombinant full‐length GST‐tagged RORB (natural protein, UniProt Q92753-1 1-459, looked up)
chain: MRAQIEVIPCKICGDKSSGIHYGVITCEGCKGFFRRSQQNNASYSCPRQRNCLIDRTNRNRCQHCRLQKCLALGMSRDAVKFGRMSKKQRDSLYAEVQKHQQRLQEQRQQQSGEAEALARVYSSSISNGLSNLNNETSGTYANGHVIDLPKSEGYYNVDSGQPSPDQSGLDMTGIKQIKQEPIYDLTSVPNLFTYSSFNNGQLAPGITMTEIDRIAQNIIKSHLETCQYTMEELHQLAWQTHTYEEIKAYQSKSREALWQQCAIQITHAIQYVVEFAKRITGFMELCQNDQILLLKSGCLEVVLVRMCRAFNPLNNTVLFEGKYGGMQMFKALGSDDLVNEAFDFAKNLCSLQLTEEEIALFSSAVLISPDRAWLIEPRKVQKLQEKIYFALQHVIQKNHLDDETLAKLIAKIPTITAVCNLHGEKLQVFKQSHPEIVNTLFPPLYKELFNPDCATGCK
notes: The construct and its expression host are not described in the main text; They may be in the Supporting Information; source: recombinant, purified
